The source of these data is paper PMC6140332.

The target of this data set is T1, ERG (33-479) R367K (UniProt P11308 33-479, R367K).
T1 sequence: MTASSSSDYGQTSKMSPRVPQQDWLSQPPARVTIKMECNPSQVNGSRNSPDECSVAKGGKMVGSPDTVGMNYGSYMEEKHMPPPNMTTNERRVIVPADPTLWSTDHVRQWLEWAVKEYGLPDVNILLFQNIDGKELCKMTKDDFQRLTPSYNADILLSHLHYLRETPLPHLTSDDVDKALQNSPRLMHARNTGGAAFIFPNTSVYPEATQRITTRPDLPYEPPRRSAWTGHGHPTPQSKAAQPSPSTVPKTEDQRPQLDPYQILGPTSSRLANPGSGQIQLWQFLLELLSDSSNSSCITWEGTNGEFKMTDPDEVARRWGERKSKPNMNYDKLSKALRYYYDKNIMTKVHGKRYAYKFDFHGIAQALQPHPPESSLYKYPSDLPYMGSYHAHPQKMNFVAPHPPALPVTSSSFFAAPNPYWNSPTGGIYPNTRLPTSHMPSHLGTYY
Briefly: EMSA.

B1: IRD800-Py (polyomavirus enhancer probe) (dsDNA)
DNA 1: GATCTTTAAGCAGGAAGTGACTAACTGACCGCAGGTGGATC
DNA 2: GATCCACCTGCGGTCAGTTAGTCACTTCCTGCTTAAAGATC
Consider B1, for which the binding result was “no binding”.
